From patent publication EP4786492A1 (Simcere Zaiming Pharmaceutical Co., Ltd., dated 2026) come the findings set out here.

For experiment [1], the target named is T1, monkey DLL3 on CHO K1-cyno DLL3 cells (cynomolgus monkey).
T1 construct: also called monkey DLL3 recombinant cell line
T1 chain: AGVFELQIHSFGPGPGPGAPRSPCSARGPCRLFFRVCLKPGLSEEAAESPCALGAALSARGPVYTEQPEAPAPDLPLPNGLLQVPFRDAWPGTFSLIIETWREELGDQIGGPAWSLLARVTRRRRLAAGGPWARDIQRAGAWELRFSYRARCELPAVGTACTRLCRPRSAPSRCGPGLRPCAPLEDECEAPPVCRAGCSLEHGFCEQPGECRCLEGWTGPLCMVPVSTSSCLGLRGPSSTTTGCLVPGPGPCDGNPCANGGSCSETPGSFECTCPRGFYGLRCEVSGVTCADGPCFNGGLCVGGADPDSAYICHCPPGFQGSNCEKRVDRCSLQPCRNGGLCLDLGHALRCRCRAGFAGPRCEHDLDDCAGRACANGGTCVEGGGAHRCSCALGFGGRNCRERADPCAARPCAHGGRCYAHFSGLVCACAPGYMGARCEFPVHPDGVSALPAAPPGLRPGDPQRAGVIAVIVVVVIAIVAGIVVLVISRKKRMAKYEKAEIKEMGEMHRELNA
The experiment can be described thus: FACS, CHO K1-cyno DLL3 cells. In general terms: A flow cytometer gives signals particle by particle.

The target of experiment [2] is T2, human DLL3-his protein (human, UniProt Q9NYJ7 27-492).
T2 construct: also called human DLL3 protein; DLL3 antigen protein; not shown: His tag
T2 sequence: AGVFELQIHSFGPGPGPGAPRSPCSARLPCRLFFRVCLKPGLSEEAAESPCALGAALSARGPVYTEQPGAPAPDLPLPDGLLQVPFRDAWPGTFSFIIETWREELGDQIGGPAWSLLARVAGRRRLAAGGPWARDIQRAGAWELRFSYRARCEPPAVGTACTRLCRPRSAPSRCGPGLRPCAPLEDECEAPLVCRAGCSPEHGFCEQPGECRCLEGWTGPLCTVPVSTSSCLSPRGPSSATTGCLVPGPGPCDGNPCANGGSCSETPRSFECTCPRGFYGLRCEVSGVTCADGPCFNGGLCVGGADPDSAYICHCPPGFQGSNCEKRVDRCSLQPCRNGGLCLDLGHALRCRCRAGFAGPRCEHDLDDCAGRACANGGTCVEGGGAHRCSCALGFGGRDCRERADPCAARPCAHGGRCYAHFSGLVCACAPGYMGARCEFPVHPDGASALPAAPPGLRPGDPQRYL
The experiment can be described thus: ELISA. In general terms: An ELISA detects its analyte on a solid surface through an enzyme-linked reagent.

For experiment [3], the target named is T3, human DLL1 protein (human, UniProt O00548 18-540, limits assumed).
T3 construct: bought protein; construct and tag not described; also called hDLL1
T3 sequence (looked up): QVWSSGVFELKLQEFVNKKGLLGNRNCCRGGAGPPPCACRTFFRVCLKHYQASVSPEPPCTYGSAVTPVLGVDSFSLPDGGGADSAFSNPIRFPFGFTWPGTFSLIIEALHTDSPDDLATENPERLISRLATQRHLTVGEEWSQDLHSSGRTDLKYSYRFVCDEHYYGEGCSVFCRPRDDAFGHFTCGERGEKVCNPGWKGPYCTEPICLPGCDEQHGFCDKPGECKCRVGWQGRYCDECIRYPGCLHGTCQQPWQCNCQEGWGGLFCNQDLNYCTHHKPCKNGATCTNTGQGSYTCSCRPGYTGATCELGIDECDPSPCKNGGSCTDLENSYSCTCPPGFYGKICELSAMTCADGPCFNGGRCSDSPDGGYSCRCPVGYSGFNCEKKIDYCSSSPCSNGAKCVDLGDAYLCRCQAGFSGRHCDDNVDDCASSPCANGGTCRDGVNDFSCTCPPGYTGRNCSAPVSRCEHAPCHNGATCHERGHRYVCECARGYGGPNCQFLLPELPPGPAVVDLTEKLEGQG
The experiment can be described thus: ELISA, maximum over 0.1-100 nM.

In experiment [4] the target is T4, human DLL4 protein (human, UniProt Q9NR61 27-524, limits assumed).
T4 construct: bought protein; construct and tag not described; also called hDLL4
T4 sequence (Q9NR61 27-524 limits assumed): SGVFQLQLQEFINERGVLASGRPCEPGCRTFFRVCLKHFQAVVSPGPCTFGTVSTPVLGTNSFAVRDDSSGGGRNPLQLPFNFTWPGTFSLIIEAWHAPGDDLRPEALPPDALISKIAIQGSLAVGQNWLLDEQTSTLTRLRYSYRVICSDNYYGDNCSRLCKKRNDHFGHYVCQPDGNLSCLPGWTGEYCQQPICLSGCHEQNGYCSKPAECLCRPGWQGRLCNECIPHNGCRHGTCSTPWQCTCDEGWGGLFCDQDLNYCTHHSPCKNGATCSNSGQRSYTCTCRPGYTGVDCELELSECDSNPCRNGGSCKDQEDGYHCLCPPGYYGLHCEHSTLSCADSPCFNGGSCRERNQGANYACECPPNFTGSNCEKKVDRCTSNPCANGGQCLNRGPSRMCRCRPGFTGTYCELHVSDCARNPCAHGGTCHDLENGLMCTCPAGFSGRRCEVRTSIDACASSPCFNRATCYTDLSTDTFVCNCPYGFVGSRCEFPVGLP
The experiment can be described thus: ELISA, maximum over 0.1-100 nM.

B1: mab003 scFv-hFc (Fc fusion)
scFv (part 1 of 2): DVQITQSPSYLAASPGETITINCRASKSISKYLAWYQEKPGKTNKLLIYSGSTLHSGIPSRFSGSGSGTDFTLTISSLEPEDFAIYYCQQHNEYPLTFGGGTKLELK
scFv (part 2 of 2): QVQLQQSGTELMKPGASVKLSCKATGYTFTGNWIEWVKQRPGHGLEWIGEILPGTGSTQYNEKFKGKATFTADPSSNTAYMQLSSLTTEDSAIYYCARWGSTVVAYDYWGQGTTLTVSS
notes: human-murine chimeric scFv-hFc, VL-linker-VH-human IgG1 Fc; not shown: linker; Fc fragment of human IgG1
Consider B1, for which the binding result in experiment [1] and in experiment [2] was “binds” each time. Also, the entries for the “Emax of OD450 nm binding value” in experiment [3] and in experiment [4] were 0.06 OD450 and 0.05 OD450, respectively.

B2: mab004 scFv-hFc (Fc fusion)
scFv (part 1 of 2): DIVLTQSPASLAVSLGQRATISCRASESVDYDGDSYMNWYQQKPGQPPKLLIYVASNLESGIPARFSGSGSGTDFILNIHPVEEEDAATYYCLQSNEAPYTFGSGTKLEIK
scFv (part 2 of 2): QVQLQQPGAELVKPGASVKLSCKASGYTFTSYWINWVKQRPGQGLEWIGNIYPGSSSPNYNEKFKSKATLTVDTSSSTAYMQLSSLTSDDSAVYYCARSLLYAMDYWGQGTSVTVSS
notes: as for B1
For B2, the binding result in experiment [1] and in experiment [2] was “binds” each time. For the same molecule, the “Emax of OD450 nm binding value” in experiment [3] is 0.05 OD450; in experiment [4], 0.04 OD450.

B3: mab016 scFv-hFc (Fc fusion)
scFv (part 1 of 2): DIVMTQSQKFMSTTIGDRVSITCKASQNVGTTVAWYQQKPGQSPNLLLYSTSNRFTGVPDRFTGSGSGTDFTLTITNMQSEDLADYFCQQYNNYPLTFGGGTKLEIK
scFv (part 2 of 2): EVNLEESGGGLVQPGGSMKLSCVASGFAFSNFWMQWVRQSPEKGLEWVAQIRLKSDNYAAHYAESVKGRFTISRDDSKSSVYLQLNNLRAEDTGTYYCTQGNWVGFAYWGQGTLVTVSA
notes: as for B1
As for B3, the binding result in experiment [1] and in experiment [2] was “binds” throughout. Further, the entries for the “Emax of OD450 nm binding value” in experiment [3] and in experiment [4] were 0.05 OD450 and 0.04 OD450, respectively.

B4: mab001 scFv-hFc (Fc fusion)
scFv (part 1 of 2): not shown
scFv (part 2 of 2): QIQLVQSGPELKKPGETVKISCKASGYTFTTYGMSWVKQAPGKGLKWMGWINTYSGVPTYADDFKGRFAFSLETSASTAYLQINNLKNEDTATYFCARIGDYDYGEYWGQGTLVTVSA
notes: as for B1
With B4, the binding result in experiment [1] and in experiment [2] was “binds” each time. In addition, the “Emax of OD450 nm binding value” in experiment [3] and in experiment [4] was 0.05 OD450 in each case.

B5: mab002 scFv-hFc (Fc fusion)
scFv (part 1 of 2): QIVLTQSPAIMSASPGEKVTMTCSARSSVSYMQWYQQKSGTSPKRWIYDTSKLASGVPARFSGSGSGTSYSLTISTMEAEDAATYYCQQWSSDPPTFGGGTKLEIK
scFv (part 2 of 2): QIQLVQSGPELKKPGETVKISCKASGYTFTNYGMNWLKQAPGKGLKWMGWINTYTGESTYADDFKGRFAFSLETSASTVYLQINNLKNEDMATYFCARMGDGYYDFTMDYWGQGTSVTVSS
notes: as for B1
B5: the binding result in experiment [1] and in experiment [2] was “binds” throughout. Further, the “Emax of OD450 nm binding value” in experiment [3] and in experiment [4] was 0.05 OD450 in each case.

B6: mab011 scFv-hFc (Fc fusion)
scFv (part 1 of 2): DIVLTQSPATLSVTPGDSVSLSCRASQSISNNLHWYQQKSHESPRLLIKYASQSISGIPSRFSGSGSGTDFTLSINSVETEDFGMYFCQQSNSWPWTFGGGTKLEIK
scFv (part 2 of 2): EVQLQQSGPELVKPGASVKISCKASGYTFTDYYMNWVKQSHGKSLEWIGDISPNYGGTNYNQKFKGKATLTVDKSSSTACMELRSLTSEDSAVYYCTRSFYYYGTGYDWYFDVWGTGTTVTVSS
notes: as for B1
B6: the binding result in experiment [1] and in experiment [2] was “binds” in each case. Also, the “Emax of OD450 nm binding value” in experiment [3] and in experiment [4] was 0.06 OD450 in each case.
